# B1: SKM9-2 antibody: mouse monoclonal IgG1 kappa antibody binding glycosylated HEG1; heavy chain SEQ ID NO: 2, light chain SEQ ID NO: 4 (antibody, listed as Mus musculus)
# heavy: MGWSSIILFLVATTTGVHSQVQLQQPGAELVRPGASVKLSCKASGFSFTTYWITWVKQRPGQGLEWIGMIHPSDSETRLSQTFKDKATLTVDKSSNTAYMQFSSPTSEDSAVYYCVRDFDVWGAGTTVTVSSAKTTPPSVYPLAPGSAAQTNSMVTLGCLVKGYFPEPVTVTWNSGSLSSGVHTFPAVLQSDLYTLSSSVTVPSSTWPSETVTCNVAHPASSTKVDKKIVPRDCGCKPCICTVPEVSSVFIFPPKPKDVLTITLTPKVTCVVVDISKDDPEVQFSWFVDDVEVHTAQTQPREEQFNSTFRSVSELPIMHQDWLNGKEFKCRVNSAAFPAPIEKTISKTKGRPKAPQVYTIPPPKEQMAKDKVSLTCMITDFFPEDITVEWQWNGQPAENYKNTQPIMDTDGSYFVYSKLNVQKSNWEAGNTFTCSVLHEGLHNHHTEKSLSHSPGK
# light: MKLPVRLLVLMFWIPASISDVLMTQTPLSLPVSLGDQASISCRSSQNIVHNNGNTYLGWYLQKPGQSPKLLIFKVSNRFSGVPDRFSGSGSGTDFTLKISRVEAEDLGVYYCFQGSHIPRTFGGGTRLEIKRADAAPTVSIFPPSSEQLTSGGASVVCFLNNFYPKDINVKWKIDGSERQNGVLNSWTDQDSKDSTYSMSSTLTLTKDEYERHNSYTCEATHKTSTSPIVKSFNRNEC
# Columns and labels:
# [1] = tested on: Lung carcinoma, other carcinomas, soft tissue sarcoma, bone sarcoma; assay: Immunohistological staining of other carcinomas and sarcomas (detection specificity to mesothelioma); set-up: species or system human
# Method: (§1) AMeX-fixed cell precipitates or formalin-fixed tissues were paraffin-embedded to prepare thin sections. Each of the sections was fixed to a microscope slide, and subjected to deparaffinization and dehydration with xylene and ethanol, followed by activation of an antigen under different conditions. Each section was treated with 3% hydrogen peroxide for 5 minutes to deactivate endogenous peroxidase, and then washed with PBS and blocked with 0.5% casein for 10 minutes. After 100 μL of a solution containing a primary antibody was added to each section and treated at room temperature for 2 hours, the section was washed with PBS and allowed to develop color by using a Histofine Simple Stain MAX-PO (Multi) ([…] BIOSCIENCE INC.), Ventana ultraView DAB universal kit (Roche Diagnostics K. K.), or the EnVision+kits. Each section was stained with hematoxylin and then dehydrated, and encapsulated with Malinol (MUTO PURE CHEMICALS CO., LTD.) to observe under a microscope. The conditions for activation of an antigen were as follows: at 98° C. for 40 minutes for calretinin, mesothelin, and the SKM9-2 antigen; and at 95° C. for 64 minutes for cytokeratin 5/6 (CK5/6), podoplanin, and Wilms' tumor gene product 1 (WT-1). The following activation solutions were used: 10 mM Tris buffer (pH 9.0) containing 1 mM ethylenediamine tetraacetate (EDTA) for calretinin, CK5/6, and podoplanin; and 10 mM citrate buffer (pH 6.0) containing 0.1% TWEEN® 20 (polyethylene glycol sorbitan monolaurate, polyoxyethylenesorbitan monolaurate) for WT-1, mesothelin, and the SKM9-2 antigen. The following primary antibodies were used: a rabbit anti-calretinin polyclonal antibody (PAD:DC8) (Life Technologies Japan Ltd., Tokyo, Japan) for calretinin; a mouse anti-cytokeratin 5,6 monoclonal antibody (D5/16B4) ([…] BIOSCIENCE INC.) for CK5/6; a mouse anti-human mesothelin monoclonal antibody (5B2) (Leica Microsystems, Inc., Bannockburn, IL) for mesothelin; a mouse anti-podoplanin monoclonal antibody (D2-40) (Roche Diagnostics K. K.) for podoplanin; and a mouse anti-human WT-1 monoclonal antibody (6F-H2) (Roche Diagnostics K. K.) for WT-1.
# Subsequently, the detection characteristics of the SKM9-2 antibody for other carcinomas were compared with those of other antibodies to confirm the detection specificity to mesothelioma. In this measurement, the detection specificity of each antibody was measured for several carcinomas: gastric carcinoma, colorectal carcinoma, breast carcinoma, ovarian carcinoma, renal cell carcinoma, and urothelial carcinoma, which are more likely to present problems in differential diagnosis of mesothelioma, as “Other carcinomas”; carcinosarcoma, liposarcoma, rhabdomyosarcoma, leiomyosarcoma, fibrosarcoma, synovial sarcoma, gastrointestinal stromal sarcoma (GIST), Ewing's sarcoma, alveolar soft part sarcoma (ASPS), solitary fibrous tumor, malignant peripheral nerve sheath tumor (MPNST), angiosarcoma, epithelioid hemangioendothelioma, epithelioid angiosarcoma, and biphasic synovial sarcoma as “Soft tissue sarcoma”; and chondrosarcoma and osteosarcoma as “Bone sarcoma”.
# [2] = tested on: healthy tissues without any apparent lesion; assay: Immunohistological staining of normal tissues; set-up: species or system human
# Method: as §1
# In addition, the reactivity of the SKM9-2 antibody with normal tissues was examined by immunohistological staining. Immunostaining was performed by using the SKM9-2 antibody for healthy tissues without any apparent lesion.
molecule,measurement,setting,value
B1,Bone sarcoma (positive cases/cases),[1]; chondrosarcoma and osteosarcoma,0/20
same,"Positive cases, epithelioid hemangioendothelioma",[1]; epithelioid hemangioendothelioma,1/6
same,Other carcinomas (positive cases/cases),"[1]; gastric, colorectal, breast, ovarian, renal cell, urothelial carcinoma",1/60
same,"Positive cases, leiomyosarcoma",[1]; leiomyosarcoma,1/10
same,Lung carcinoma (positive cases/cases),[1]; lung carcinoma,0/98
same,Specificity (%),[1]; mesothelioma specificity over all non-mesothelioma tumors,99.0%
same,Soft tissue sarcoma (positive cases/cases),[1]; soft tissue sarcoma,2/132
same,"Positive cases, urothelial carcinoma",[1]; urothelial carcinoma,1/10
same,Number of positive cases/number of samples,[2]; Bladder and ureter,0/5
same,Number of positive cases/number of samples,"[2]; Blood vessel, *Some cells were positive",*5/8
same,Number of positive cases/number of samples,[2]; Bronchus,0/12
same,Number of positive cases/number of samples,[2]; Cerebrum,0/29
same,Number of positive cases/number of samples,[2]; Duodenum,0/2
same,Number of positive cases/number of samples,[2]; Esophagus,0/2
same,Number of positive cases/number of samples,[2]; Gallbladder,0/5
same,Number of positive cases/number of samples,[2]; Kidney,0/10
same,Number of positive cases/number of samples,[2]; Large intestine,0/6
same,Number of positive cases/number of samples,[2]; Liver,0/8
same,Number of positive cases/number of samples,[2]; Lung,0/23
same,Number of positive cases/number of samples,[2]; Lymph node,0/4
same,Number of positive cases/number of samples,[2]; Mammary gland,0/5
same,Number of positive cases/number of samples,[2]; Muscle,0/4
same,Number of positive cases/number of samples,[2]; Myocardium,0/12
same,Number of positive cases/number of samples,[2]; Ovary,0/4
same,Number of positive cases/number of samples,[2]; Pancreas,0/10
same,Number of positive cases/number of samples,[2]; Pericardium,1/1
same,Number of positive cases/number of samples,[2]; Peritoneum,0/2
same,Number of positive cases/number of samples,[2]; Pleura,0/5
same,Number of positive cases/number of samples,[2]; Prostate,0/10
same,Number of positive cases/number of samples,[2]; Stomach,0/3
same,Number of positive cases/number of samples,[2]; Testicular serosa,0/1
same,Number of positive cases/number of samples,[2]; Testis,1/5
same,Number of positive cases/number of samples,[2]; Thyroid,0/5
same,Reactivity with normal tissue cells,[2]; normal mesothelial cells other than pericardial mesothelial cells,Negative
same,Reactivity with normal tissue cells,[2]; pericardial mesothelial cells,positive image
same,Reactivity with normal tissue cells,"[2]; seminiferous tubule, one case for the testis",positive
same,Reactivity with normal tissue cells,[2]; vascular endothelial cells,positive image
